# Laboratory results as given in patent US20220381770A1.
# Tests used:
# [1] = biological target: HCMV pp65495-503/HLA-A2-Fc (Human cytomegalovirus); experiment: flow cytometry of pMHC-Fc-loaded α-Fc-based T-Plex beads stained with BB7.2
# [2] = biological target: Survivin96-104/HLA-A2-Fc-STag; experiment: as above
substance,measurement,setting,value
αHLA-A2 mAb (Clone BB7.2/BioLegend) of IgG2b isotype (antibody),fold MFI against pMHC-pCC-Fc-loaded SAv-based T-Plex beads,[1],4 fold
same,fold MFI against pMHC-pCC-Fc-loaded SAv-based T-Plex beads,[2],4 fold
